Patent EP2698431B1 (Chugai Seiyaku Kabushiki Kaisha, dated 2020)
Positions count from the first letter of the chain named. Where two headings read alike, the source gives them in different places. One block for each binder: values may come before it.

What was measured:
[1] = molecular target: T1, soluble human IL-6 receptor (human, UniProt P08887 20-357); test: SPR 37C, 3 µM CaCl2
T1 construct: also called hsIL-6R
T1 sequence: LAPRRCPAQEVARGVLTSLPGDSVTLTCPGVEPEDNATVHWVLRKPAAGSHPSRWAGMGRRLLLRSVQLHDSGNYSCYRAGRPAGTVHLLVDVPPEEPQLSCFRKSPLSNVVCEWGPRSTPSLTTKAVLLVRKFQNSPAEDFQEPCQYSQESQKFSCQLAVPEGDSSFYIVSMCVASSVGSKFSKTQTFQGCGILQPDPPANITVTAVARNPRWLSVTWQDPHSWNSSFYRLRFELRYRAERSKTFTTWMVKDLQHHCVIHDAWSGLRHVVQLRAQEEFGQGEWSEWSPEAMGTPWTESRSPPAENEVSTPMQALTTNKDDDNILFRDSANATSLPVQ

[2] = molecular target: T1, soluble human IL-6 receptor; test: SPR 37C, 3 µM Ca, estimated from Req
[3] = molecular target: T2, human FcRn (soluble, complexed with β2-microglobulin) (human, UniProt P61769 21-119); test: SPR pH7.0
mouse FcγRIIb [4] = molecular target: T3, mouse FcγRIIb (mouse, UniProt P08101 40-217, limits assumed); test: SPR pH7.4
T3 construct: bought; also called mFcgRIIb; mFcgRII
T3 sequence (looked up): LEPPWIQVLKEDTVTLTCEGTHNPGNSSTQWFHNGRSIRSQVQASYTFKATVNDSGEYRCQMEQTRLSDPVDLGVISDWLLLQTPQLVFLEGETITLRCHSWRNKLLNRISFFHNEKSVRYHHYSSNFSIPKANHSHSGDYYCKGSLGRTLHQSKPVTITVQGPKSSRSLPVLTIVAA

mouse FcγRIII [5] = molecular target: T4, mouse FcγRIII (mouse, UniProt P08508 31-215); test: SPR pH7.4
T4 construct: bought; also called mFcgRIII
T4 sequence (looked up): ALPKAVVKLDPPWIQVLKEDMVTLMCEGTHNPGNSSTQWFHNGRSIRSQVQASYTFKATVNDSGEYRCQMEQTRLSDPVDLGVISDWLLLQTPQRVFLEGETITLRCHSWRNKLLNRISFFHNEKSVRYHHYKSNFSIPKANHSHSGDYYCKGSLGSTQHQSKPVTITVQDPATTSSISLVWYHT

mouse FcγRIV [6] = molecular target: T5, mouse FcγRIV (mouse, UniProt A0A0B4J1G0 21-203); test: SPR pH7.4
T5 construct: bought; also called mFcgRIV
T5 sequence: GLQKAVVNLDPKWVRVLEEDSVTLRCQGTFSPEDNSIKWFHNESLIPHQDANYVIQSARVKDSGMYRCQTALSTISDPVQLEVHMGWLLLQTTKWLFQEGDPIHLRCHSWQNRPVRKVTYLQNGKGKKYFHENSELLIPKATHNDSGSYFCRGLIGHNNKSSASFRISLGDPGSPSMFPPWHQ

mouse FcγRI [7] = molecular target: T6, mouse FcγRI (mouse, UniProt P26151 25-297); test: SPR pH7.4
T6 construct: bought; also called mFcgRI
T6 sequence (looked up): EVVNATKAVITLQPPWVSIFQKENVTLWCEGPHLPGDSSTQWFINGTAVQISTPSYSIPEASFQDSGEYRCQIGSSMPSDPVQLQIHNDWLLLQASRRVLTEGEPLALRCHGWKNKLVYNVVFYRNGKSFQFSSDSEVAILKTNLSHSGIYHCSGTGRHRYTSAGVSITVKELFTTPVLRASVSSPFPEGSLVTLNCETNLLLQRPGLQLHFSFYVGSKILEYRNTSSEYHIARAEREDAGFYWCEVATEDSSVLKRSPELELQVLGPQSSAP

[8] = molecular target: T2, human FcRn (soluble, complexed with …); test: SPR pH7.0; remark: listed apart in the source
[9] = molecular target: T2, human FcRn (soluble, complexed with …); test: SPR pH7.0; remark: listed apart in the source
[10] = molecular target: T2, human FcRn (soluble, complexed with …); test: SPR pH7.0; remark: listed apart in the source
[11] = molecular target: T2, human FcRn (soluble, complexed with …); test: SPR pH7.0; remark: listed apart in the source
mouse FcγRIIb [12] = molecular target: T3, mouse FcγRIIb; test: SPR pH7.4; remark: listed apart in the source
mouse FcγRIII [13] = molecular target: T4, mouse FcγRIII; test: SPR pH7.4; remark: listed apart in the source
mouse FcγRIV [14] = molecular target: T5, mouse FcγRIV; test: SPR pH7.4; remark: listed apart in the source
mouse FcγRI [15] = molecular target: T6, mouse FcγRI; test: SPR pH7.4; remark: listed apart in the source
[16] = molecular target: T2, human FcRn (soluble, complexed with …); test: SPR pH7.0; remark: listed apart in the source
[17] = molecular target: T2, human FcRn (soluble, complexed with …); test: SPR pH7.0; remark: listed apart in the source
[18] = molecular target: T2, human FcRn (soluble, complexed with …); test: SPR pH7.0; remark: listed apart in the source
mouse FcγRIIb [19] = molecular target: T3, mouse FcγRIIb; test: SPR pH7.4; parameters: unit not given here
mouse FcγRIII [20] = molecular target: T4, mouse FcγRIII; test: SPR pH7.4; parameters: unit not given here
mouse FcγRIV [21] = molecular target: T5, mouse FcγRIV; test: SPR pH7.4; parameters: unit not given here
mouse FcγRI [22] = molecular target: T6, mouse FcγRI; test: SPR pH7.4; parameters: unit not given here
[23] = molecular target: T2, human FcRn (soluble, complexed with …); test: SPR pH7.0; remark: listed apart in the source
[24] = molecular target: T2, human FcRn (soluble, complexed with …); test: SPR pH7.0; remark: listed apart in the source
[25] = molecular target: T2, human FcRn (soluble, complexed with …); test: SPR pH7.0; remark: listed apart in the source
[26] = molecular target: T2, human FcRn (soluble, complexed with …); test: SPR pH7.0; remark: listed apart in the source

B1: 6RL#9-IgG1 (antibody, V domains shown)
VH: QVQLVQSGAEVKKPGASVKVSCKASGYTFTSYYMHWVRQAPGQGLEWMGIINPSGGSTSYAQKFQGRVTMTRDTSTSTVYMELSSLRSEDTAVYYCARDDPGGGEYYFDYWGQGTLVTVSS
VL: QSVLTQPPSVSGAPGQRVTISCTGSRSNMGAGYDVHWYQLLPGAAPKLLISHNTHRPSGVPDRFSGSKSGASASLAITGLQAEDEADYYCQSHDSSLSAVVFGGGTKLTVLS
Kd [1]: ≥ 31000 nM
Kd [2]: ~31000 nM

B2: FH4-IgG1 (antibody, V domains shown)
VH: QVQLVQSGAEVKKPGSSVKVSCKASGGTFSSYAISWVRQAPGQGLEWMGGIIPIFGTANYAQKFQGRVTITADESTSTAYMELSSLRSEDTAVYYCARERDYYDSSGYYDAFDIWGQGTMVTVSS
VL: ETTVTQSPSFLSASVGDRVTITCITTTDIDDDMNWFQQEPGKAPKLLISEGNILRPGVPSRFSSSGYGTDFTLTISKLQPEDFATYYCLQSDNLPFTFGQGTKLEIKR
Kd [1]: ≥ 34000 nM
Kd [2]: ~34000 nM

B3: VH3/L(WT)-IgG1-F21 (antibody)
chain 1: QVQLQESGPGLVKPSETLSLTCAVSGHSISHDHAWSWVRQPPGEGLEWIGFISYSGITNYNPSLQGRVTISRDNSKNTLYLQMNSLRAEDTAVYYCARSLARTTAMDYWGEGTLVTVSSASTKGPSVFPLAPSSKSTSGGTAALGCLVKDYFPEPVTVSWNSGALTSGVHTFPAVLQSSGLYSLSSVVTVPSSSLGTQTYICNVNHKPSNTKVDKKVEPKSCDKTHTCPPCPAPELLGGPSVFLFPPKPKDTLYISRTPEVTCVVVDVSHEDPEVKFNWYVDGVEVHNAKTKPREEQYNSTYRVVSVLTPLHQDWLNGKEYKCKVSNKALPAPIEKTISKAKGQPREPQVYTLPPSRDELTKNQVSLTCLVKGFYPSDIAVEWESNGQPENNYKTTPPVLDSDGSFFLYSKLTVDKSRWQQGNVFSCSVMHEALHYHYTQKSLSLSP
chain 2: not shown
Kd [3]: 30 nM
binding amount (mouse FcγRIIb [4]): 112 RU
binding amount (mouse FcγRIII [5]): 371 RU
binding amount (mouse FcγRIV [6]): 242 RU
binding amount (mouse FcγRI [7]): 315 RU
Kd [8]: 30 nM
Kd [9]: 30 nM

B4: VH3/L(WT)-IgG1-F157 (antibody)
chain 1: B3 chain 1 with Y254M, P259A, M430L
chain 2: not shown
Kd [3]: 150 nM
binding amount (mouse FcγRIIb [4]): 129 RU
binding amount (mouse FcγRIII [5]): 276 RU
binding amount (mouse FcγRIV [6]): 243 RU
binding amount (mouse FcγRI [7]): 315 RU
Kd [10]: 150 nM

B7: VH3/L(WT)-IgG1-F424 (antibody)
chain 1: B3 chain 1 with S241K, Y254M, P259A, M430L
chain 2: not shown
Kd [3]: 94 nM
binding amount (mouse FcγRIIb [4]): -2.5 RU
binding amount (mouse FcγRIV [6]): 138 RU
Kd [24]: 94 nM

B8: VH3/L(WT)-IgG1-F140 (antibody)
chain 1: B3 chain 1 with S241K
chain 2: not shown
Kd [3]: 36 nM
binding amount (mouse FcγRIIb [4]): -1.8 RU
binding amount (mouse FcγRIII [5]): 46.6 RU
binding amount (mouse FcγRIV [6]): 108 RU
Kd [8]: 36 nM
Kd [10]: 36 nM

B9: VH3/L(WT)-IgG1-F821 (antibody)
chain 1: B3 chain 1 with L237R, S241K, P310V
chain 2: not shown
Kd [11]: 310 nM
binding amount (mouse FcγRIIb [12]): -4.5 RU
binding amount (mouse FcγRIII [13]): -20.3 RU
binding amount (mouse FcγRIV [14]): -3.8 RU
binding amount (mouse FcγRI [15]): 0.6 RU
Kd [25]: 310 nM

The remaining lines, values ahead:

Kd [11]: 110 nM
binding amount (mouse FcγRIIb [12]): 69.3 RU
binding amount (mouse FcγRIII [13]): 284 RU
binding amount (mouse FcγRIV [14]): 230 RU
binding amount (mouse FcγRI [15]): 268 RU
Kd [16]: 107 nM
Kd [17]: 110 nM
B5: VH3/L(WT)-IgG1-F890 (antibody)
chain 1: B3 chain 1 with P310V, Y438V
chain 2: not shown

Kd [11]: 11 nM
binding amount (mouse FcγRIIb [12]): 117 RU
binding amount (mouse FcγRIII [13]): 382 RU
binding amount (mouse FcγRIV [14]): 242 RU
binding amount (mouse FcγRI [15]): 299 RU
Kd [18]: 11 nM
binding amount (mouse FcγRIIb [19]): 129
binding amount (mouse FcγRIII [20]): 664
binding amount (mouse FcγRIV [21]): 279
binding amount (mouse FcγRI [22]): 329
Kd [16]: 11 nM
Kd [23]: 11 nM
B6: VH3/L(WT)-IgG1-F947 (antibody)
chain 1: B3 chain 1 with T252V, T309Q, Q313A, Y438V
chain 2: not shown

Kd [11]: 150 nM
binding amount (mouse FcγRIIb [12]): -6.3 RU
binding amount (mouse FcγRIII [13]): -24.9 RU
binding amount (mouse FcγRIV [14]): -7.3 RU
binding amount (mouse FcγRI [15]): -2 RU
Kd [16]: 153 nM
Kd [23]: 150 nM
B10: VH3/L(WT)-IgG1-F939 (antibody)
chain 1: B3 chain 1 with L237R, S241K, P310V, Y438V
chain 2: not shown

Kd [11]: 12 nM
binding amount (mouse FcγRIIb [12]): -1.5 RU
binding amount (mouse FcγRIII [13]): -12.9 RU
binding amount (mouse FcγRIV [14]): 7.2 RU
binding amount (mouse FcγRI [15]): 0.6 RU
Kd [16]: 12 nM
Kd [26]: 12 nM
B11: VH3/L(WT)-IgG1-F1009 (antibody)
chain 1: B3 chain 1 with L237R, S241K, T252V, T309Q, Q313A, Y438V
chain 2: not shown
